# Results reported in patent US6713269B2, “Methods for identifying potential therapeutic agents for treatment of osteoporosis using mitogenic indices” (co.don Aktiengesellschaft, priority 1995, dated 2004).
# Tested on: human osteoblast precursor cells
# Assay: Cell proliferation rate under the influence of growth factors, using bromodeoxyuridine incorporation (BrdU incorporation)
# Type: cell-based
# Conditions: for Absorbance mean value: 54 h incubation + 18 h BrdU labelling, OD at 405 nm
# Experimental: 3,000 osteoblastic cells from fractions t1 to 2 up to the second passage, recovered from osteoporotic patients (OP cells), per well of a 96-well microwell plate were incubated in the presence of 10% FCS and 10% inactivated human control serum in a cell culture medium (α-MEM and HAM-S F12 medium […]) for 48 h, 120 h and 192 h. In parallel, 3,000 osteoblastic cells from non-osteoporotic patients were incubated under the same conditions. The number of intact cells was determined by means of trypan blue staining and counting in a counting chamber. 4. Determination of the cell proliferation rate under the influence of the three growth factors 1, 2 and 3 using bromodeoxyuridine incorporation (BrdU incorporation) Growth factor 1 =TGF-β2
# Cells from fraction 1 and/or 2 of each punched-out bone piece up to the 2nd passage were used in the proliferation test.
# 3 ×10^3 cells from the first and/or second passage per well of a 96-well plate and 200 μl of medium were used.
# The cells were cultivated for three days under the conditions previously described and subsequently cultivated further for one day in medium with no serum until subconfluence was reached.
# Thereafter, the three growth factors 1, 2 and 3 were added to the cells at four different final concentrations (100, 10, 1, and 0.1 ng/ml medium).
# Cells in a medium containing 10% FKS and in a medium containing 5% Ultroser served as controls.
# Triplets were set up for all concentrations and controls.
# Six wells including cells, to which no bromodeoxyuridine had been added during the proliferation test served as blank controls.
# After 54 hours of incubation with the growth factors, the proliferation test (5-Bromo-2′-deoxyuridine Labeling and Detection Kit III by Boehringer Mannheim) was initiated by adding 20 μl of labelling solution diluted 1:90 in 1% BSA medium and subsequent incubation for 18 hours.
# The proliferation test was conducted according to the manufacturer's instructions.
# Evaluation of the proliferation test was effected by measuring the optical density (OD) at 405 nm in an ELISA reader. After 60 minutes of color development, the absorbance was measured 12 times at intervals of 5 minutes.
molecule,measurement,setting,value
"TGF-β2: protein growth factor 1 tested for mitogenic effect on osteoblast cells (protein, UniProt P61812 303-414, looked up) Transforming growth factor …: ALDAAYCFRNVQDNCCLRPLYIDFKRDLGWKWIHEPKGYNANFCAGACPYLWSSDTQHSRVLSLYNTINPEASASPCCVSQDLEPLTILYYIGKTPKIEQLSNMIVKSCKCS",Absorbance mean value,0.1 ng/ml medium,0.150
same,Absorbance mean value,1 ng/ml medium,0.170
same,Absorbance mean value,10 ng/ml medium,0.190
same,Absorbance mean value,100 ng/ml medium,0.190
same,"mitogenic effect (stimulative capability of cell proliferation, dose-effect curves)","osteoblast cells from osteoporosis patients, FIG. 5",significant dose-dependent mitogenic effect
